Experimental data from paper PMC13062060, “Calcium activation mechanism of a noncanonical aromatic L-amino acid decarboxylase from psilocybin mushroom Psilocybe cubensis” (Communications Biology, 2026).

tested on: N[C@@H](Cc1ccccc1)C(=O)O; assay: LC-MS of phenylethylamine formed, Michaelis-Menten fit; type: biochemical, Psilocybe cubensis; conditions: 30 mM calcium acetate (activating), 50 mM Tris pH 8.0, room temperature, brackets 95% CI, also measured in 30 mM NaCl
Description: LC-MS of phenylethylamine formed, Michaelis-Menten fit on PcncAAAD (noncanonical aromatic L-amino acid decarboxylase)

Substance	Km	kcat [s⁻¹]
PcncAAAD (noncanonical aromatic L-amino acid decarboxylase) (Psilocybe cubensis)	88 [49–154] µM	0.51
PcncAAAD (noncanonical aromatic L-amino acid decarboxylase) (Psilocybe cubensis; D825A/D931A/E824A)	174 [105–287] µM	0.41
PcncAAAD (noncanonical aromatic L-amino acid decarboxylase) (Psilocybe cubensis; D971A/D973A/E637A/E638A/E972A)	513 [319–839] µM	0.073
PcncAAAD (noncanonical aromatic L-amino acid decarboxylase) (Psilocybe cubensis; D825A/D931A/D971A/D973A/E637A/E638A/E824A/E972A)	586 [359–979] µM	0.044
